Test results published in patent CN1421459A.

What was measured:
[1] = target: 人T细胞CD3 (human); experiment: fluorescence staining and flow cytometry on CD3-positive HPBLL or Jurkat cells, compared with mOKT3 (Fig. 3)
[2] = target: 人T细胞CD3 (human); experiment: fluorescence staining, flow cytometry, antibody 1 μg/ml; cells not named
[3] = target: 人T细胞CD3 (human); experiment: cell-based or functional assay
[4] = target: 人T细胞CD3 (human); experiment: flow cytometry on human PBMC, unlabelled huGD3 competing with saturating FITC-mGD3; calculated by the formula [X]-[mGD3]=(1/Kx)-(1/Ka)
[5] = target: 人T细胞CD3 (human); experiment: fluorescence staining, flow cytometry, antibody 10 μg/ml; cells not named
[6] = target: 人T细胞CD3 (human); experiment: fluorescence staining, flow cytometry, antibody 0.1 μg/ml; cells not named

Chain of 人T细胞CD3 (human) (P07766 23-207, chain 1 of 4): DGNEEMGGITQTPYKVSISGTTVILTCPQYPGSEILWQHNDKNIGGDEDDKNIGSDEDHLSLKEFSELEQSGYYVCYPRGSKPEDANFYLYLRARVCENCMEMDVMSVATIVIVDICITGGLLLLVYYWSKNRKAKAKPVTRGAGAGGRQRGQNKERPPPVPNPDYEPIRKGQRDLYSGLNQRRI
Chain of 人T细胞CD3 (human) (P09693 23-182, chain 2 of 4, further chain): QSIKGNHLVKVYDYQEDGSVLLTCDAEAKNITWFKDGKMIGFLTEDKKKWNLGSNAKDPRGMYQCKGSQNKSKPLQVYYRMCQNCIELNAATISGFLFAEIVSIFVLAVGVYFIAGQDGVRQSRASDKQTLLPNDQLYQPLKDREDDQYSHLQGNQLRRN
Chain of 人T细胞CD3 (human) (P04234 22-171, chain 3 of 4, further chain): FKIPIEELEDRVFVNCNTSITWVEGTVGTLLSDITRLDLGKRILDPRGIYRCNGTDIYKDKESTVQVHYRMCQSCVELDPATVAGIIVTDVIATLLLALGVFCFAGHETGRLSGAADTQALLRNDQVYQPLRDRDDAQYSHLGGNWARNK
Chain of 人T细胞CD3 (human) (P20963 22-164, chain 4 of 4, further chain): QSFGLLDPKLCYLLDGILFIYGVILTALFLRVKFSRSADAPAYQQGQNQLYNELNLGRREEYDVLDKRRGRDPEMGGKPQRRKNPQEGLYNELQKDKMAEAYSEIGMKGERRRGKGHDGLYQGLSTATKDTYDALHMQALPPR

B1: 人源化抗体huGD3 (antibody, human IgG1, V domains shown)
VH: QVQLVQSGGGVVQPGRSLRLSCKASGYTFTSYTMHWVRQAPGKGLEWIGYINPSSGYTKYNQKFKDRFTISADNSKSTAFLQMDSLRPEDTAVYYCARWQDYDVYFDYWGQGTPVTVSS
VL: DIVLTQSPSSLSASVGDRVTITCRASSSVSYMHWYQQTPGKAPKPWIYATSNLASGVPSRFSGSGSGTDYTFTISSLQPEDIATYYCQQWSSNPPTFGQGTKLQITR
Q: B1 was tested. Which 亲和力 relative to mOKT3 (orders of magnitude) [1] did it give?
A: 2 数量级

Q: And the MFI [2]?
A: 76 MFI

Q: What about the CD3调变(%), antibody 10^1 ng/ml, human PBMC, 37°C 24 h [3] of the same binder?
A: 13.6%

Q: And the CD3调变(%), antibody 10^2 ng/ml, human PBMC, 37°C 24 h [3]?
A: 56.9%

Q: And the CD3调变(%), antibody 10^3 ng/ml, human PBMC, 37°C 24 h [3]?
A: 70%

Q: What about the CD3调变(%), antibody 10^4 ng/ml, human PBMC, 37°C 24 h [3] of the same binder?
A: 85.4%

Q: And the CD3调变(%), antibody 10^5 ng/ml, human PBMC, 37°C 24 h [3]?
A: 85.6%

Q: And the CD3调变(%), antibody 10^-1 ng/ml, human PBMC, 37°C 24 h [3]?
A: 9.52%

Q: What about the CD3调变(%), antibody column printed '10' (probably 10^0) ng/ml, human PBMC, 37°C 24 h [3] of the same binder?
A: 13.2%

Q: And the Ka [4]?
A: 1.6e+09 M⁻¹

Q: And the MFI [5]?
A: 97 MFI

Q: And the MFI [6]?
A: 55 MFI
